Source: patent US20170291948A1 (published 2017)

Target: human NRP1 protein (human, UniProt O14786 22-644)
Assay: ELISA

Chain of human NRP1 protein (O14786 other isoform, or with tags, fused parts or gaps): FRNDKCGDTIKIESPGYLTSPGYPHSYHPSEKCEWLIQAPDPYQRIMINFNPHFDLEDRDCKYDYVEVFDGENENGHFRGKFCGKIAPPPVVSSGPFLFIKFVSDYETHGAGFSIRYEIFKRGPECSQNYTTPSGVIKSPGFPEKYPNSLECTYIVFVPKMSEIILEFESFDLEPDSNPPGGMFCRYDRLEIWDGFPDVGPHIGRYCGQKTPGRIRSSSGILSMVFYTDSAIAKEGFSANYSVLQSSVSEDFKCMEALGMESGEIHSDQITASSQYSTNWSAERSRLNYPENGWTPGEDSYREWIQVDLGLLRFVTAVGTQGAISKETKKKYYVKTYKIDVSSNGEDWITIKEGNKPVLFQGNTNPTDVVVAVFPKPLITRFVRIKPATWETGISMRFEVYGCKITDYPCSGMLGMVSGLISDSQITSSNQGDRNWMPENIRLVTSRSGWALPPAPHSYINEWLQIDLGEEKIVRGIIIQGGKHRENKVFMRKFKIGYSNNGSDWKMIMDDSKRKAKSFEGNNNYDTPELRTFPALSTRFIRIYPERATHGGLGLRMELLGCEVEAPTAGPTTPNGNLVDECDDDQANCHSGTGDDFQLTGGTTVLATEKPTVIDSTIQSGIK

Row | Kd | Binder
1 | 1110 nM | 1A03 anti-NRP1 IgG (antibody, V domains shown) VH: EVQLLESGGGLVQPGGSLRLSCAASGFTFSSYYMSWVRQAPGKGLEWVSAISPGSSNKYYADSVQGRFTISRDNSKNTLYLQMNSLRAEDTAVYYCARRKKSFDYWGQGTLVTVSS VL: QSVLTQPPSASGTPGQRVTISCSGPSSNIGNNDVSWYQQLPGTAPKLLIYSDNNRPSGVPDRFSGSKSGTSASLAISGLRSEDEADYYCGAWVASLSAYVFGGGTKLTVL
2 | 426 nM | IRCR-101 (3H10) anti-NRP1 IgG (antibody, V domains shown) VH: EVQLLESGGGLVQPGGSLRLSCAASGFTFSSYYMSWVRQAPGKGLEWVSAISPGSSNKYYADSVKGRFTISRDNSKNTLYLQMNSLRAEDTAVYYCARRKYMFDYWGQGTLVTVSS VL: QSVLTQPPSASGTPGQRVTISCTGSSSNIGNNDVYWYQQLPGTAPKLLIYSDSNRPSGVPDRFSGSKSGTSASLAISGLRSEDEADYYCASWDSSLSGYVFGGGTKLTVL
